For this experiment, the target named is LGR4 (leucine-rich repeat containing, G protein-coupled receptor 4) (UniProt Q9BXB1 25-951). As to the kind of experiment: whole-cell binding assay.

B1: R4Fu-WT (wild-type RSPO4 furin domain fused to human IgG1 Fc) (Fc fusion)
chain: VGTGLGGNCTGCIICSEENGCSTCQQRLFLFIRREGIRQYGKCLHDCPPGYFGIRGQEVNRCKKCGATCESCFSQDFCIRCKRQFYLYKGKCLPTCPPSGGGGSGGGGSGGGGS
B1 gave a Kd of 3.2 nM.

B2: R4Fu-Q65R (RSPO4 furin domain Q65R fused to human IgG1 Fc) (Fc fusion)
chain: VGTGLGGNCTGCIICSEENGCSTCQQRLFLFIRREGIRRYGKCLHDCPPGYFGIRGQEVNRCKKCGATCESCFSQDFCIRCKRQFYLYKGKCLPTCPPSGGGGSGGGGSGGGGS
The molecule B2 came in with a Kd of 6.2 nM.

Values taken from article PMC8713425 (Journal of medicinal chemistry, 2021).
